From US10308692B2, “Variants of GAL2 transporter and their uses” (Johann Wolfgang Goethe-Universität Frankfurt, priority 2014, dated 2019)

What was measured:
Format in all cases: cell-based, Saccharomyces cerevisiae
AFY10 [1] = assay: Serial dilution drop test on xylose and xylose-glucose media; conditions: for growth on low xylose: 0.2% (2 g/l) xylose
Description: The transformants were cultivated in 5 ml SCE-ura-leu with 2% ethanol at 30°, washed with water and adjusted to an OD600 of 1. Thereof it followed a serial dilution. 5 μl were dropped onto the respective media and it was incubated for five days at 30°. As a control for the dilution SCE-ura-leu with 2% ethanol was taken. The cells of the mutated transporters were dropped onto SCX-ura-leu with 0.2% and 2% D-xylose, as well as SC-ura-leu with 1% D-xylose with 4% D-glucose and SC-ura-leu with 0.2% D-xylose and 2% D-glucose to test their functionality. Furthermore the wild type and Gal2_ep3.1 were used for comparison.
FIG. 5: Drop test of Gal2_M435I in AFY10 after five days at 30°. Several dilutions were dropped from left to right (undiluted, 1:10, 1:100, 1:1000).
FIG. 6: Drop test of Gal2_N376F, N376F+M435I and N376Y+M435I in AFY10 after five days at 30°. Several dilutions were dropped from left to right (undiluted, 1:10, 1:100, 1:1000). But on 20 g/l xylose the order was different (undiluted, 1:100, 1:1000, 1:10).
For easy comparison of growth of different S. cerevisiae strains under various growth conditions a serial dilution spot assay was performed. Cells were grown in liquid culture to exponential phase in appropriate medium, collected by centrifugation (2000×g, 2 min), washed twice with sterile water and then resuspended to an OD600 of 1.0 in selective medium without carbon source. From this cell suspension a ten-fold serial dilution was prepared in selective medium (four dilution steps). 6 μl of each cell suspension were spotted on plates of the media to be examined and allowed to dry. Plates were incubated at 30° C.
To characterize the different constructs which all were verified by sequencing they were transformed together with vector YEp181_pHXT7-optXI_Clos into competent AFY10 cells and drop tests were performed.

EBY.VW4000 = assay: Xylose uptake assay with radioactively labelled xylose; conditions: for Vmax: xylose uptake, Michaelis-Menten fit (GraphPad Prism), three replicates, figures give velocity in nmol xylose per minute per milligram cell dry mass
Source text: FIG. 7: Xylose uptake assay of Gal2_N376Y, N376Y+M435I and Gal2 wild type in EBY.VW4000 (three independent replicates). The uptake velocity is shown in nmol xylose per minute per milligram cell dry mass.
FIG. 8: Xylose uptake assay of Gal2_N376F, N376F+M435I and Gal2 wild type in EBY.VW4000 (three independent replicates). The uptake velocity is shown in nmol xylose per minute per milligram cell dray mass.
Sugar uptake assays were done as described by Bisson et al. (Bisson and Fraenkel, 1983) with modifications according to Walsh et al. (Walsh et al., 1994).
Transformants of strain EBY.VW4000 were grown in selective YEPE to an OD of 1.1-1.6, harvested by centrifugation and washed twice in ice-cold uptake-buffer (RT, 3 min, 3000×g). Cells were kept on ice from here on. The cell pellet was resuspended in ice-cold uptake-buffer to a concentration of 60 mgww/ml and aliquoted to 110 μl. One cell suspension aliquot and one sugar solution were incubated in a water bath at 30° C. for 4-5 min. 100 μl of the cell suspension were pipetted to the sugar solution (50 μl), mixed briefly by pipetting and incubated for 5 (D-[U-^14C]-glucose) or 20 sec (D-[1-^14C]-xylose). The uptake reaction was stopped by transferring 100 μl of the mixture into 10 ml ice-cold quenching-buffer, which was immediately filtered through a Durapore membrane filter (0.22 μm pore size, Millipore). The filter was washed twice with 10 ml ice-cold quenching-buffer, transferred to a scintillation vial containing 4 ml scintillation cocktail (Rotiszint eco plus, Roth) and shaken thoroughly. Additionally to this filter sample (cpmfilter), 10 μl of each reaction were transferred directly to a scintillation vial with 4 ml scintillation cocktail for determination of the total counts in the reaction (cpmtotal). To determine a value for sugar that is bound unspecifically to the cell surface or the filter (cpmblank) a few samples of 33,3 μl sugar solution and 66,6 μl cell suspension were mixed in 10 ml icecold quenching buffer and treated as described above. Radioactivity of all vials was analysed in an Wallac 1409 liquid scintillation counter.
Stocksolutions of 2M, 500 mM or 20 mM glucose or xylose (in H2O) were used to prepare the sugar solutions for the assays (threefold of the desired concentration in the uptake reaction (S, substrate concentration), 50 μl aliquots). Uptake was measured at sugar concentrations 0.2, 1, 5, 25 and 100 mM for glucose and 1, 5, 25, 66, 100, 200 and 500 mM for xylose. Inhibition of xylose uptake by glucose was measured at 25, 66 and 100 mM xylose with additional 25 and 100 mM unlabelled glucose. Sugar solutions contained 0.135 to 0.608 μCi of D-[U-^14C]-glucose (290-300 mCi/mmol) or D-[1-^14C]-xylose (55 mCi/mmol) (American Radiolabeled Chemicals Inc., St. Louis, Mo., USA).
The amount of sugar (Asugar in nmol) taken up during the incubation time (t, in seconds) at a certain sugar concentration (S, in mM): Asugar=((cpmsample−cpmblank)/(cpmtotal·10))·S·100 μl
Transport velocity (in nmol·min^−1·mgww^−1) calculated per milligrams of cell (m, in mgww): V=(Asugar·60 s)/(t·m)
Calculation of Km (Michaelis constant), Vmax (maximal initial uptake velocity) and Ki (inhibitor constant for competitive inhibition) was done by nonlinear regression analysis and global curve fitting in Prism 5 (GraphPad Software, Inc.) with values of three independent measurements.
Xylose uptake of Gal2_N376F, N376F+M435I, N376Y und N376Y+M435I was characterized with a sugar uptake assay. The relevant plasmids were transformed in strain EBY.VW4000. Cells were cultivated in SCM-ura until they reached the exponential growth phase (OD600˜0.6). Then cells were harvested, concentrated to the same OD600 (OD600 35-40), separated into different aliquots and stored on ice.
Three uptake assays (in tripicates) were performed with different concentrations of radioactively labelled xylose. Data were collected and fittet with GraphPad Prism according to Michaelis Menten (FIGS. 7 and 8).

AFY10 [2] = assay: Growth test in liquid media and fermentation; conditions: for xylose concentration of the supernatant decreased during the fermentation to: HPLC
Description: The strain AFY10, which was transformed with YEp181_pHXT7-opt.XI_Clos and p426H7-GAL2_wt (WT) or p426H7-GAL2_ep3.1 (ep3.1) or p426-GAL2_N376Y+M435I (M435I), was incubated in 150 ml SCE-ura-leu+G418. This was the preculture which was used to start the fermentation with an OD600 of 0.6 in 30 ml SC-ura-leu with 0.6% xylose (A) or with 0.6% xylose with 2% glucose (B). The cultures were incubated at 180 rpm and 30° for seven days. Samples were taken for growth measurements as well as metabolite analysis.
For analysis of metabolites cell-free samples (5-10 min, 4° C., 16000×g) were mixed with 1/9 volumes of 50% (w/v) 5-sulfosalicylic acid and centrifuged (5-10 min, 4° C., 16000×g). The supernatant was analyzed in an UHPLC+ system by Thermo Scientific (Dionex UltiMate 3000) equipped with a HyperREZ XP Carbohydrate H^+8 μm column and a refractive index detector (Thermo Shodex RI-101). Separation was carried out at column temperature of 65° C. with 5 mM sulfuric acid as mobiles phase with a flow rate of 0.6 ml/min. Chromeleon 6.80 software was used to control the system and to analyze the data. Five standards (mixtures of D-glucose, D-xylose, xylitol, acetate, glycerol and ethanol with concentrations of 0.01-3% (w/v)) were analyzed for quantification of the different compounds.
To investigate the growth difference and the xylose consumption of the mutants in comparison to the wild type and the error prone mutant, an anaerobic growth test in liquid media was carried out. For this purpose AFY10 cells were co-transformed with the vector with the respective GAL2 sequence and YEp181_pHXT7-opt.XI_Clos and inoculated in SCE-ura-leu+G418 to have an OD600 of 0.6 in 30 ml SC-ura-leu with 0.6% xylose or with 0.6% xylose with 2% glucose. The OD600 was measured regularly during five days, the growth rate μ was determined and the metabolites of the samples were examined, whereby the samples were diluted 1:5 for this reason.

[3] = start 0.6% xylose with 2% glucose

B1: N376Y + M435I: Gal2 variant with amino acid substitutions N376Y and M435I (protein, UniProt P13181 1-574, looked up, variant N376Y M435I)
Galactose transporter: MAVEENNMPVVSQQPQAGEDVISSLSKDSHLSAQSQKYSNDELKAGESGSEGSQSVPIEIPKKPMSEYVTVSLLCLCVAFGGFMFGWDTGTISGFVVQTDFLRRFGMKHKDGTHYLSNVRTGLIVAIFNIGCAFGGIILSKGGDMYGRKKGLSIVVSVYIVGIIIQIASINKWYQYFIGRIISGLGVGGIAVLCPMLISEIAPKHLRGTLVSCYQLMITAGIFLGYCTNYGTKSYSNSVQWRVPLGLCFAWSLFMIGALTLVPESPRYLCEVNKVEDAKRSIAKSNKVSPEDPAVQAELDLIMAGIEAEKLAGNASWGELFSTKTKVFQRLLMGVFVQMFQQLTGNNYFFYYGTVIFKSVGLDDSFETSIVIGVVYFASTFFSLWTVENLGHRKCLLLGAATMMACMVIYASVGVTRLYPHGKSQPSSKGAGNCIIVFTCFYIFCYATTWAPVAWVITAESFPLRVKSKCMALASASNWVWGFLIAFFTPFITSAINFYYGYVFMGCLVAMFFYVFFFVPETKGLSLEEIQELWEEGVLPWKSEGWIPSSRRGNNYDLEDLQHDDKPWYKAMLE
growth on low xylose (AFY10 [1]): better growth | growth on low xylose with glucose (AFY10 [1]; 0.2% xylose with 2% glucose): better growth | growth on xylose with glucose (AFY10 [1]; 1% xylose with 4% glucose (10 g/l xylose plus 40 g/l glucose)): best growth | growth on high xylose (AFY10 [1]; 2% (20 g/l) xylose, compared within the same drop test): best growth | xylose uptake rate compared to wild type (EBY.VW4000; FIGS. 7 and 8): strongly improved | Vmax (EBY.VW4000): 99.61 | growth rate (AFY10 [2]; 0.6% xylose): 0.014 h⁻¹ | growth rate (AFY10 [2]; 0.6% xylose with 2% glucose): 0.015 h⁻¹ | xylose concentration of the supernatant decreased during the fermentation to (AFY10 [2]; [3]): 0.37% | xylose concentration of the supernatant decreased during the fermentation to (AFY10 [2]; start 0.6% xylose): 0.35%

B2: Gal2 WT: wild-type protein Gal2 of S. cerevisiae CEN.PK2-1C, SEQ ID NO: 1, 574 amino acids, galactose transporter (protein, UniProt P13181 1-574, looked up)
Galactose transporter: MAVEENNMPVVSQQPQAGEDVISSLSKDSHLSAQSQKYSNDELKAGESGSEGSQSVPIEIPKKPMSEYVTVSLLCLCVAFGGFMFGWDTGTISGFVVQTDFLRRFGMKHKDGTHYLSNVRTGLIVAIFNIGCAFGGIILSKGGDMYGRKKGLSIVVSVYIVGIIIQIASINKWYQYFIGRIISGLGVGGIAVLCPMLISEIAPKHLRGTLVSCYQLMITAGIFLGYCTNYGTKSYSNSVQWRVPLGLCFAWSLFMIGALTLVPESPRYLCEVNKVEDAKRSIAKSNKVSPEDPAVQAELDLIMAGIEAEKLAGNASWGELFSTKTKVFQRLLMGVFVQMFQQLTGNNYFFYYGTVIFKSVGLDDSFETSIVIGVVNFASTFFSLWTVENLGHRKCLLLGAATMMACMVIYASVGVTRLYPHGKSQPSSKGAGNCMIVFTCFYIFCYATTWAPVAWVITAESFPLRVKSKCMALASASNWVWGFLIAFFTPFITSAINFYYGYVFMGCLVAMFFYVFFFVPETKGLSLEEIQELWEEGVLPWKSEGWIPSSRRGNNYDLEDLQHDDKPWYKAMLE
growth on low xylose (AFY10 [1]): best growth | Vmax (EBY.VW4000): 63.43 | OD600 tend (AFY10 [2]; [Xyl+Glu]: 0.6% xylose with 2% glucose): 0,52 | OD600 tend (AFY10 [2]; [Xyl]: 0.6% xylose without glucose): 0,86 | xylose concentration of the supernatant decreased during the fermentation to (AFY10 [2]; [3]): 0.53%
